According to patent publication US20100215656A1:

Key:
[1] = biological target: mesothelin (UniProt Q13421); test: cell-based or functional assay
[2] = biological target: CD22 (human) (UniProt P20273); test: cell-based or functional assay
Sequence of UniProt P20273 (P20273 20-847): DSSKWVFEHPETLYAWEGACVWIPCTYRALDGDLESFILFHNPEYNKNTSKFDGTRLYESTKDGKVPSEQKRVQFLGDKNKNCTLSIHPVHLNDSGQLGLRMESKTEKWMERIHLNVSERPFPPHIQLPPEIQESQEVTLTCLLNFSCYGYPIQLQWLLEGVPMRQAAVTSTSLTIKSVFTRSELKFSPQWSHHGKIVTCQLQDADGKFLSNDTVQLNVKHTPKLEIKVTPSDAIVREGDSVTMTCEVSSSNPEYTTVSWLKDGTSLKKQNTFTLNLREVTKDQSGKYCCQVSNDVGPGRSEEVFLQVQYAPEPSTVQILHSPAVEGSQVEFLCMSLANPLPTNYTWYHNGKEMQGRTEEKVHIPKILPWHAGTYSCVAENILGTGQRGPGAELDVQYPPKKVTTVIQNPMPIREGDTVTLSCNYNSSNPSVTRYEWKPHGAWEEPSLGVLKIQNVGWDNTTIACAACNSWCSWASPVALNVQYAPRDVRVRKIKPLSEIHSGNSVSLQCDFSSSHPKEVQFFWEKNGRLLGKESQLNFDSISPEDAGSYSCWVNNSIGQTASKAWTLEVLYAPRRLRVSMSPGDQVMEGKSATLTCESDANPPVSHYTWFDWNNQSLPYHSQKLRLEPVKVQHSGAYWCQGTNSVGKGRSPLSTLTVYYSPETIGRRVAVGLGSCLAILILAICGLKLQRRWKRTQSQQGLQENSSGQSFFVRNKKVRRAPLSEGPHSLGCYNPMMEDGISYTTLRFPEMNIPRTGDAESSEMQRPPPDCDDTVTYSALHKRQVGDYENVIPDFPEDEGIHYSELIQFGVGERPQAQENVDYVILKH

Sequence of UniProt Q13421 (Q13421 other isoform, or with tags, fused parts or gaps limits assumed): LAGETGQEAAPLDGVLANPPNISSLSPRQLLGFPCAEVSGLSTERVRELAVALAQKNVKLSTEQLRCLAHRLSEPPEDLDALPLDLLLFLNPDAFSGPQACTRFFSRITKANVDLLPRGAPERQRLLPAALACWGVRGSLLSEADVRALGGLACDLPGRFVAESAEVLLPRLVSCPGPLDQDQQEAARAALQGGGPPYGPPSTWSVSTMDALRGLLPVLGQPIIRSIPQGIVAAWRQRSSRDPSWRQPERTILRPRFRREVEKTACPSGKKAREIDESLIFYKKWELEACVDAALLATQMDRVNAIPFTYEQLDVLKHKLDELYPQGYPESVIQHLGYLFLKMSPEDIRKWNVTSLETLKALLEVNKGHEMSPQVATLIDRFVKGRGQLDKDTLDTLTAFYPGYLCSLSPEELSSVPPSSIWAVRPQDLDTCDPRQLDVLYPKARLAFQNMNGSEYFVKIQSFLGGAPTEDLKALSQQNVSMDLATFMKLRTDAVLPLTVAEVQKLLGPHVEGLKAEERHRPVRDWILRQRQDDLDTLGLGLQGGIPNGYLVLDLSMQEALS

SS1P (antibody SS1 fused to PE38) showed an IC50 (ng/ml), cytotoxicity on A431/K5 cells [1] of 0.2 ng/mL, an IC50 (ng/ml), cytotoxicity on A1847 cells [1] of 4.06 ng/mL and an IC50 (ng/ml), cytotoxicity on HAY cells [1] of 4.54 ng/mL. The IC50 (ng/ml), cytotoxicity on KB31 cells [1] was 5.15 ng/mL, the IC50 (ng/ml), cytotoxicity on L55 cells [1] was 4.77 ng/mL and the IC50 (ng/ml), cytotoxicity on OVCAR-8 cells [1] was 2.32 ng/mL.

With “HA22-LR (anti-CD22 dsFv of HA22 fused to the 25-kDa lysosome-resistant PE fragment, PE25 / PE-LR)” the Relative Activity (against HA22) on CA46 cells [2] was 1.15, the Relative Activity (against HA22) on Daudi cells [2] was 1.12 and the Relative Activity (against HA22) on KOPN-8 cells [2] was 0.22. The Relative Activity (against HA22) on Raji cells [2] was 0.49, the Relative Activity (against HA22) on Ramos cells [2] was 0.91 and the Relative Activity (against HA22) on WSU-CLL cells [2] was 2.12. The Relative Activity (against HA22), cell death, CLL #1 [2] was 16.2, the Relative Activity (against HA22), cell death, CLL #2 [2] was 7.65 and the Relative Activity (against HA22), cell death, HCL #2 [2] was 0.08. For the same substance, the Relative Activity (against HA22), cell death, HCL #3 [2] was 1.39, the Relative Activity (against HA22), protein synthesis, CLL #1 [2] was greater than 210 and the Relative Activity (against HA22), protein synthesis, CLL #2 [2] was greater than 16.8. For the same substance, the Relative Activity (against HA22), protein synthesis, CLL #3 [2] was 2.07, the Relative Activity (against HA22), protein synthesis, CLL #4 [2] was 51.8 and the Relative Activity (against HA22), protein synthesis, CLL #5 [2] was 2.16. It also gave a Relative Activity (against HA22), protein synthesis, HCL #1 [2] of 0.88, a Relative Activity (against HA22), protein synthesis, HCL #2 [2] of 0.14 and a Relative Activity (against HA22), protein synthesis, HCL #3 [2] greater than 1.76. The inhibition of protein synthesis at 1 ng/ml, patient cells CLL #2 [2] was 55%.

In the case of “SS1-PE-LR (antibody SS1 fused to the PE used in HA22-LR)”, the IC50 (ng/ml), cytotoxicity on A431/K5 cells [1] is reported as 1.19 ng/mL, the IC50 (ng/ml), cytotoxicity on A1847 cells (*Incomplete cell killing) [1] is reported as 4.24 ng/mL and the IC50 (ng/ml), cytotoxicity on HAY cells [1] is reported as 1.22 ng/mL. For the same substance, the IC50 (ng/ml), cytotoxicity on KB31 cells (*Incomplete cell killing) [1] was greater than 1000 ng/mL, the IC50 (ng/ml), cytotoxicity on L55 cells [1] was 3.87 ng/mL and the IC50 (ng/ml), cytotoxicity on OVCAR-8 cells (*Incomplete cell killing) [1] was 4.29 ng/mL. It also gave a Relative Activity (against the PE38 immunotoxin) on A431/K5 cells [1] of 0.17, a Relative Activity (against the PE38 immunotoxin) on A1847 cells [1] of 0.96 and a Relative Activity (against the PE38 immunotoxin) on HAY cells [1] of 3.72. For the same substance, the Relative Activity (against the PE38 immunotoxin) on KB31 cells (fold decrease) [1] was greater than 200, the Relative Activity (against the PE38 immunotoxin) on L55 cells [1] was 1.23 and the Relative Activity (against the PE38 immunotoxin) on OVCAR-8 cells [1] was 0.54.
